Reference: patent US20250043302A1, “MUTATED HYDROXYPHENYLPYRUVATE DIOXYGENASE POLYPEPTIDE, AND CODING GENE AND USE THEREOF” (BEIJING DABEINONG BIOTECHNOLOGY CO., LTD., priority 2021, published 2025)

Key:
[1] = tested on: Arabidopsis thaliana T1 plants; assay: Mesotrione tolerance of transgenic Arabidopsis thaliana T1 plants (spray, bleached leaf area grade, damage score); type: in vivo; parameters: Scores: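 damage score 0-100 computed as Σ(N×S)/(T×M)×100 over grades 0-3 with higher meaning more damage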; conditions: Table 12; for Classification and statistics of the grade of pesticide damage Grade 0: number of plants at grade 0; for Classification and statistics of the grade of pesticide damage Grade 1: number of plants at grade 1; for Classification and statistics of the grade of pesticide damage Grade 2: number of plants at grade 2; for Classification and statistics of the grade of pesticide damage Grade 3: number of plants at grade 3; for Scores: pesticide damage score
In short: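 Damage graded 0–3 from the proportion of bleached leaf area 7 days after spraying. Plants were glufosinate-selected T1 lines, 18 days after sowing, plus vector and wild-type controls. Rates: mesotrione 52.5–420, isoxaflutole 35–280, topramezone 25–200 g ai/ha, with water (0×).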

[2] = tested on: Arabidopsis thaliana T1 plants; assay: Isoxaflutole tolerance of transgenic Arabidopsis thaliana T1 plants (spray, bleached leaf area grade, damage score); type: in vivo; conditions: Table 11; for Classification and statistics of the grade of pesticide damage Grade 0: number of plants at grade 0; for Classification and statistics of the grade of pesticide damage Grade 1: number of plants at grade 1; for Classification and statistics of the grade of pesticide damage Grade 2: number of plants at grade 2; for Classification and statistics of the grade of pesticide damage Grade 3: number of plants at grade 3; for Scores: pesticide damage score;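 on Scores: Weighted damage index from 0 to 100 where higher means more damage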
From the text: T1 transformants were initially selected from the untransformed seeds using a glufosinate selection scheme. The Arabidopsis thaliana T1 plants (AsHPPD-02) into which the AsHPPD-02 nucleotide sequence was introduced, the Arabidopsis thaliana T1 plants (AsHPPDm-F372A-02) into which the AsHPPDm-F372A-02 nucleotide sequence was introduced, the Arabidopsis thaliana T1 plants (AsHPPDm-F383W-02) into which the AsHPPDm-F383W-02 nucleotide sequence was introduced, the Arabidopsis thaliana T1 plants (AsHPPDm-F372A-F383W-02) into which the AsHPPDm-F372A-F383W-02 nucleotide sequence was introduced, the Arabidopsis thaliana T1 plants (DBN11726N) into which the control recombinant expression vector DBN11726N was introduced, and the wild-type Arabidopsis thaliana plants (CK) (18 days after sowing) were sprayed respectively with topramezone at three concentrations (100 g ai/ha (four-fold field concentration, 4×), 200 g ai/ha (eight-fold field concentration, 8×), and 0 g ai/ha (water, 0×)), isoxaflutole at three concentrations (140 g ai/ha (two-fold field concentration, 2×), 280 g ai/ha (four-fold field concentration, 4×), and 0 g ai/ha (water, 0×)), and mesotrione at three concentrations (210 g ai/ha (two-fold field concentration, […]), 420 g ai/ha (four-fold field concentration, 4×), and 0 g ai/ha (water, 0×)), to determine the tolerance of Arabidopsis thaliana to the herbicides. The degree of damage caused by the herbicide was measured for each plant according to the proportion of bleached leaf area (the proportion of bleached leaf area=bleached leaf area/total leaf area×100%) 7 days after spraying (7 DAT): the case where there is basically no bleached phenotype is defined as grade 0, the case where the proportion of bleached leaf area is less than 50% is defined as grade 1, the case where the proportion of bleached leaf area is more than 50% is defined as grade 2, and the case where the proportion of bleached leaf area is 100% grade is defined as grade 3.
According to the method as described above in point 6 of Example 1, the aforementioned Arabidopsis thaliana T1 plants and wild-type Arabidopsis thaliana plants (CK) (18 days after sowing) were sprayed respectively with topramezone at three concentrations (25 g ai/ha (one-fold field concentration, 1×). 100 g ai/ha (four-fold field concentration, 4×), and 0 g ai/ha (water, 0×)), isoxaflutole at three concentrations (35 g ai/ha (half-fold field concentration, 0.5×). 70 g ai/ha (one-fold field concentration, 1×), and 0 g ai/ha (water, 0×)), and mesotrione at three concentrations (52.5 g ai/ha (half-fold field concentration, 0.5×), 105 g ai/ha (one-fold field concentration, 1×), and 0 g ai/ha (water, 0×)) to detect the tolerance of Arabidopsis thaliana to the herbicides.
According to the method as described above in point 6 of Example 1, the aforementioned Arabidopsis thaliana T1 plants and wild-type Arabidopsis thaliana plants (CK) (18 days after sowing) were sprayed with topramezone at three different concentrations (i.e., 100 g ai/ha (four-fold field concentration, 4×), 200 g ai/ha (eight-fold field concentration, 8×) and 0 g ai/ha (water, 0×)), isoxaflutole at three different concentrations (i.e., 140 g ai/ha (two-fold field concentration, 2×), 280 g ai/ha (four-fold field concentration, 4×) and 0 g ai/ha (water, 0×)), and mesotrione at three different concentrations (i.e., 210 g ai/ha (two-fold field concentration, 2×), 420 g ai/ha (four-fold field concentration, 4×) and 0 g ai/ha (water, 0×)) respectively to detect the herbicide tolerance of Arabidopsis thaliana. […]

B1: AsHPPDm-A107-F383W-02: nucleotide sequence encoding Avena sativa HPPD with A107 deletion+F383W; vector DBN11779 (nucleic acid)
DNA: ATGCCACCTACTCCAGCTACAGCTACTGGTGCTGCTGCTGCTGCCGTTACTCCTGAGCACGCTGCCAGGTCATTCCCCAGGGTGGTTCGCGTGAACCCCAGATCTGATAGGTTCCCAGTTCTGAGCTTCCACCATGTTGAGCTGTGGTGCGCTGATGCTGCTTCTGCTGCTGGCAGGTTCTCTTTCGCTCTTGGTGCTCCACTCGCTGCTAGATCTGATCTGTCTACAGGAAATAGCGCTCATGCCTCACTCCTGCTTCGCTCAGGTGCTTTGGCCTTCCTCTTCACCGCTCCATATGCTCCCCCACCTCAGGAGGCTACTGCTGCTGCTACAGCCTCCATTCCAAGCTTCTCAGCTGATGCCGCTAGAACCTTCGCTGCTGCTCATGGACTTGCCGTGAGGTCTGTTGGTGTTCGCGTGGCTGATGCTGCTGAGGCTTTCAGAGTTTCCGTTGCCGGCGGAGCTAGGCCAGCTTTCGCTCCTGCTGATTTGGGACATGGTTTCGGCCTGGCTGAGGTTGAGCTTTACGGTGACGTGGTTCTCCGCTTCGTGTCTTACCCAGATGAGACTGACCTGCCTTTCCTTCCCGGCTTCGAGAGAGTTTCCTCTCCTGGTGCCGTGGATTACGGCCTGACAAGGTTCGACCACGTGGTTGGAAACGTTCCCGAGATGGCTCCAGTGATCGATTACATGAAGGGCTTCCTTGGATTCCATGAGTTCGCCGAGTTCACTGCTGAGGACGTGGGAACCACTGAGTCCGGTTTGAACTCTGTGGTTCTCGCCAACAATTCTGAGGCTGTTTTGCTCCCTCTGAATGAGCCTGTGCATGGAACCAAGAGGAGAAGCCAGATTCAAACTTACCTGGAGTACCACGGTGGCCCTGGAGTTCAGCATATCGCCCTTGCTTCTAATGATGTGTTGCGCACACTCAGAGAGATGCGCGCCAGAACCCCCATGGGAGGTTTCGAGTTCATGGCCCCACCACAGGCTAAGTACTACGAGGGCGTTAGAAGGATTGCTGGAGACGTGTTGAGCGAGGAGCAGATCAAGGAGTGCCAAGAGCTGGGTGTTCTTGTGGATAGGGATGACCAGGGCGTTCTGCTTCAAATTTTCACTAAGCCAGTGGGCGACCGCCCTACATTCTGGCTTGAGATGATTCAAAGAATCGGCTGCATGGAGAAGGATGAGGTTGGACAGGAGTACCAAAAGGGCGGATGCGGTGGCTTCGGAAAGGGTAACTTCAGCGAGTTGTTCAAGTCAATCGAGGACTACGAGAAGAGCCTCGAGGTGAAGCAGTCAGTGGTTGCCCAAAAGTCCTGA
modifications: AsHPPDm-A107-F383W-02 Nucleotide Sequence
notes: vector DBN11779
[1]; mesotrione 210 g ai/ha (2×)
  Resistance evaluation: Moderately
  Classification and statistics of the grade of pesticide damage Grade 0: 4
  Classification and statistics of the grade of pesticide damage Grade 1: 9
  Classification and statistics of the grade of pesticide damage Grade 2: 3
  Classification and statistics of the grade of pesticide damage Grade 3: 0
  Scores: 31
[1]; mesotrione 420 g ai/ha (4×)
  Resistance evaluation: Poorly resistant
  Classification and statistics of the grade of pesticide damage Grade 0: 0
  Classification and statistics of the grade of pesticide damage Grade 1: 2
  Classification and statistics of the grade of pesticide damage Grade 2: 14
  Classification and statistics of the grade of pesticide damage Grade 3: 0
  Scores: 63
[2]; isoxaflutole 140 g ai/ha (2×)
  Resistance evaluation: Moderately
  Classification and statistics of the grade of pesticide damage Grade 0: 7
  Classification and statistics of the grade of pesticide damage Grade 1: 7
  Classification and statistics of the grade of pesticide damage Grade 2: 1
  Classification and statistics of the grade of pesticide damage Grade 3: 1
  Scores: 25
[2]; isoxaflutole 280 g ai/ha (4×)
  Resistance evaluation: Poorly resistant
  Classification and statistics of the grade of pesticide damage Grade 0: 4
  Classification and statistics of the grade of pesticide damage Grade 1: 4
  Classification and statistics of the grade of pesticide damage Grade 2: 7
  Classification and statistics of the grade of pesticide damage Grade 3: 1
  Scores: 44
